Assay results: patent US20250163186A1 (PHYLAXIS BIOSCIENCE, published 2025)

biological target: T1, CH2-4 constant domains of human IgE linked to a transmembrane protein, on 293 cells (human, UniProt P01854-1 104-428); experiment: flow cytometry, 293 cells expressing human IgE CH2-4
T1 construct: domain: CH2-4 constant domains; also called human IgE-expressing 293 cells
Description: First, 25 μg of DNA was added to Opti-MEM Reduced Serum Medium (Gibco) mixed with 75 μL of 40 kDa Polyethylenimine (PEI) for a final concentration of 1 μg DNA and 2.5 μg PEI per mL of culture volume. The plasmid DNA was allowed to pre-complex with PEI for 15 minutes before transferring the mixture to 25 mL of 293 cells in a shake flask at a density of 2×10⁶ cells/mL. […] Next, 50 μL of cells were transferred to wells of a round-bottom 96-well assay plate for a total of 50,000 293 cells per well. In a separate 96-well plate, monomeric VHH-hIgG1-Fc fusion proteins were titrated 1:5 in a 8-point dilution series starting at 1 μM in FACS Buffer with the 8th point containing no antibody. 50 μL from each antibody dilution was added to wells containing 50 μL of FACS Buffer with transfected 293 cells which produced a 2-fold dilution of the antibody concentrations from the dilution series resulting in a 500 nM final, starting concentration of the test article titration. The test articles and 293 cells were incubated together at 4° C. for 30 minutes. Next, the 96-well plates were centrifuged at 400×g for 5 minutes and the FACS buffer containing unbound antibody was decanted. Cells were washed 1× with 150 μL 4° C. FACS Buffer. […] The cells were incubated with the fluorophore conjugated detection antibody at 4° C. for 20 minutes. 293 cells were then centrifuged and washed once as described above. Cell pellets were resuspended in 30 μL FACS Buffer and analyzed on an iQue Screener Plus flow cytometer (Sartorius, IntelliCyt) with a 1 second sip time and 1 second void time. Mean fluorescent intensity was calculated using iQue onboard software gating on GFP+ or citrine+ cells.

T1 sequence (P01854 other isoform, or with tags, fused parts or gaps): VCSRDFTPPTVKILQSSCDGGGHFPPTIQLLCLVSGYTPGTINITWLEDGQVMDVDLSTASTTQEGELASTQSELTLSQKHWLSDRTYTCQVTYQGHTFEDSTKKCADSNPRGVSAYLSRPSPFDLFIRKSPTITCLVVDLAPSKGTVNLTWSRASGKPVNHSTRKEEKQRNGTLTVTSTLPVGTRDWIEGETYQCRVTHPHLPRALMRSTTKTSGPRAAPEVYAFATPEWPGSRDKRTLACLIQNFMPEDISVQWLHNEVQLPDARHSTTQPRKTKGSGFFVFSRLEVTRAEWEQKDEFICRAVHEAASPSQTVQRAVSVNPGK

Row | Bmax [MFI] | Kd [nM] | Binder
1 | 3.89e+06 | 75 | hzB10v4-NNT (Fc fusion, monomeric) VHH-Fc: EVQLVQSGGELVQAGGSLRLSCVASGLTFSSYNMGWLRQAPGKEREFVGMSGSSSTSTYYAESVKGRFTISRDNAKNTLYLQMSSLRAEDTAVYYCAARRMLSTYWSDRSWDFWGQGTQVTVKPGGPSVFLFPPKPKDTLMISRTPEVTCVVVDVSHEDPEVKFNWYVDGVEVHNAKTKPREEQYNSTYRVVSVLTVLHQDWLNGKEYKCKVSNKALPAPIEKTISKAKGQPREPQVYTLPPSRDELTKNQVNLTCLVKGFYPSDIAVEWESNGQPENNYKTTPPVLDSDGSFFLNSTLTVDKSRWQQGNVFSCSVMHEALHNHYTQKSLSLSPGK
2 | – | 1.95 | hzB10v6-NNT (Fc fusion, monomeric) VHH-Fc: EVQLVQSGGELVQAGGSLRLSCVASGLTFSSYNMGWLRQAPGKEREFVGMSGSSSTSTYYADSVKGRFTISRDNSKNTVYLQMNSLKPEDTAVYYCAARRMLSTYWSDRSWDFWGQGTQVTVRPGGPSVFLFPPKPKDTLMISRTPEVTCVVVDVSHEDPEVKFNWYVDGVEVHNAKTKPREEQYNSTYRVVSVLTVLHQDWLNGKEYKCKVSNKALPAPIEKTISKAKGQPREPQVYTLPPSRDELTKNQVNLTCLVKGFYPSDIAVEWESNGQPENNYKTTPPVLDSDGSFFLNSTLTVDKSRWQQGNVFSCSVMHEALHNHYTQKSLSLSPGK
3 | – | 2.5 | hzB10v5-NNT (Fc fusion, monomeric) VHH-Fc: EVQLVQSGGELVQAGGSLRLSCVASGLTFSSYNMGWLRQAPGKEREFVGMSGSSSTSTYYADSVKGRFTISRDNSKNTVYLQMNSLKPEDTAVYYCAARRMLSTYWSDRSWDFWGQGTQVTVEPGGPSVFLFPPKPKDTLMISRTPEVTCVVVDVSHEDPEVKFNWYVDGVEVHNAKTKPREEQYNSTYRVVSVLTVLHQDWLNGKEYKCKVSNKALPAPIEKTISKAKGQPREPQVYTLPPSRDELTKNQVNLTCLVKGFYPSDIAVEWESNGQPENNYKTTPPVLDSDGSFFLNSTLTVDKSRWQQGNVFSCSVMHEALHNHYTQKSLSLSPGK
4 | 3.34e+06 | 3.71 | hzB10v7-NNT (Fc fusion, monomeric) VHH-Fc: EVQLVQSGGELVQAGGSLRLSCVASGLTFSSYNMGWLRQAPGKEREFVGLSGSSSTSTYYADSVKGRFTISRDNSKNTVYLQMNSLKPEDTAVYYCAARRMLSTYWSDRSWDFWGQGTQVTVKPGGPSVFLFPPKPKDTLMISRTPEVTCVVVDVSHEDPEVKFNWYVDGVEVHNAKTKPREEQYNSTYRVVSVLTVLHQDWLNGKEYKCKVSNKALPAPIEKTISKAKGQPREPQVYTLPPSRDELTKNQVNLTCLVKGFYPSDIAVEWESNGQPENNYKTTPPVLDSDGSFFLNSTLTVDKSRWQQGNVFSCSVMHEALHNHYTQKSLSLSPGK

biological target: T2, human IgE (human, UniProt P01854 1-428); experiment: ELISA, clone lysate on IgE-coated plate
T2 construct: written under the same molecule; also called IgE (Abcam ab65866); soluble IgE
T2 sequence (P01854 other isoform, or with tags, fused parts or gaps limits assumed, form in doubt): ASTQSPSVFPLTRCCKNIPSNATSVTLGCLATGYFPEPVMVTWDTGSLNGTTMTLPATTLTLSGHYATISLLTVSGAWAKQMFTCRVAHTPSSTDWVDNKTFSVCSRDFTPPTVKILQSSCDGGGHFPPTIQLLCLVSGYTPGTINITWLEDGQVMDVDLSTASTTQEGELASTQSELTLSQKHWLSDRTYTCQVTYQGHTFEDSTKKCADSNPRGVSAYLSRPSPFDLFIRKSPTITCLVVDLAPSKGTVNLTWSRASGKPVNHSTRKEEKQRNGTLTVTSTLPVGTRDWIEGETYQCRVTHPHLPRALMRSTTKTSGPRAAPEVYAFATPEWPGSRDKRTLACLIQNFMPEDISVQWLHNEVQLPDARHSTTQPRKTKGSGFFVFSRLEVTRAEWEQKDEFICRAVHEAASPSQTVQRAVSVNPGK
From the text: Each amino acid in CDR1 (SEQ ID NO:3), CDR2 (SEQ ID NO:68), and CDR3 (SEQ ID NO:74) was randomly replaced such that the 20 natural amino acids would likely all have been sampled at every position. The expression vector for the VHH containing the mutagenized CDRs was then transfected into E. coli, and at least 96 clones were randomly chosen for each position mutated in each CDR. This gives likely coverage of all potential mutations at each position since the probability to get any given amino acid at that position is 5%. […] The heat maps represent the relative binding for each clone determined by the range of OD values from the ELISA background to WT CDR binding (FIGS. 16A-16C). Site numbering for each residue tested is indicated by the inset tables in FIGS. 16A-16C.

Row | Confirm OD450 Duplicate1 | Confirm OD450 Duplicate2 | R1 Screening OD450 | Binder
5 | 0.535 | 0.524 | 0.886 | 9G9 (VHH, also called hzB10v40 VHH, CDR1 site 9 M to T) VHH: EVQLLESGGGEVQPGGSLRLSCVASGLTFSSYNTGWLRQAPGKEREFVGLSGSSSTSTYYAESVKGRFTISRDNAKNTVYLQMTSLRAEDTAVYYCAARRLLSTYWSDRSWDFWGQGTLVTVEP
6 | 0.514 | 0.523 | 1 | 33-2C4 (VHH) VHH: EVQLLESGGGEVQPGGSLRLSCVASGLTFSSYNMGWLRQAPGKEREFVGLSGSSSTSTYYAESVKGRFTISRDNAKNTVYLQMTSLRAEDTAVYYCAARRLFSTYWSDRSWDFWGQGTLVTVEP
7 | 0.556 | 0.537 | 1.06 | 44C1 (VHH) VHH: EVQLLESGGGEVQPGGSLRLSCVASGLTFSSYNMGWLRQAPGKEREFVGLSGSSSTSTYYAESVKGRFTISRDNAKNTVYLQMTSLRAEDTAVYYCAARRLLSTYWSDRSWDMWGQGTLVTVEP
8 | 0.508 | 0.494 | 0.846 | 10E3 (VHH, also called hzB10v40 VHH, CDR1 site 10 G to S) VHH: EVQLLESGGGEVQPGGSLRLSCVASGLTFSSYNMSWLRQAPGKEREFVGLSGSSSTSTYYAESVKGRFTISRDNAKNTVYLQMTSLRAEDTAVYYCAARRLLSTYWSDRSWDFWGQGTLVTVEP
9 | 0.525 | 0.573 | 1.01 | 33-2C5 (VHH) VHH: EVQLLESGGGEVQPGGSLRLSCVASGLTFSSYNMGWLRQAPGKEREFVGLSGSSSTSTYYAESVKGRFTISRDNAKNTVYLQMTSLRAEDTAVYYCAARRLHSTYWSDRSWDFWGQGTLVTVEP
10 | 0.471 | 0.492 | 0.927 | 28H1 (VHH) VHH: EVQLLESGGGEVQPGGSLRLSCVASGLTFSSYNMGWLRQAPGKEREFVGLSGSSSTSTYYAESVKGRFTISRDNAKNTVYLQMTSLRAEDTAVYYCSARRLLSTYWSDRSWDFWGQGTLVTVEP
11 | 0.55 | 0.534 | 1.01 | 39E11 (VHH) VHH: EVQLLESGGGEVQPGGSLRLSCVASGLTFSSYNMGWLRQAPGKEREFVGLSGSSSTSTYYAESVKGRFTISRDNAKNTVYLQMTSLRAEDTAVYYCAARRLLSTYWSHRSWDFWGQGTLVTVEP
12 | 0.593 | 0.612 | 1.07 | 35G3 (VHH) VHH: EVQLLESGGGEVQPGGSLRLSCVASGLTFSSYNMGWLRQAPGKEREFVGLSGSSSTSTYYAESVKGRFTISRDNAKNTVYLQMTSLRAEDTAVYYCAARRLLSRYWSDRSWDFWGQGTLVTVEP
13 | 0.557 | 0.557 | 0.924 | 32F11 (VHH) VHH: EVQLLESGGGEVQPGGSLRLSCVASGLTFSSYNMGWLRQAPGKEREFVGLSGSSSTSTYYAESVKGRFTISRDNAKNTVYLQMTSLRAEDTAVYYCAARRRLSTYWSDRSWDFWGQGTLVTVEP
14 | 0.49 | 0.5 | 0.88 | 9H9 (VHH, also called hzB10v40 VHH, CDR1 site 9 M to F) VHH: EVQLLESGGGEVQPGGSLRLSCVASGLTFSSYNFGWLRQAPGKEREFVGLSGSSSTSTYYAESVKGRFTISRDNAKNTVYLQMTSLRAEDTAVYYCAARRLLSTYWSDRSWDFWGQGTLVTVEP
15 | 0.562 | 0.585 | 1 | 39C11 (VHH) VHH: EVQLLESGGGEVQPGGSLRLSCVASGLTFSSYNMGWLRQAPGKEREFVGLSGSSSTSTYYAESVKGRFTISRDNAKNTVYLQMTSLRAEDTAVYYCAARRLLSTYWSMRSWDFWGQGTLVTVEP
16 | 0.557 | 0.564 | 1.01 | 33-2A2 (VHH) VHH: EVQLLESGGGEVQPGGSLRLSCVASGLTFSSYNMGWLRQAPGKEREFVGLSGSSSTSTYYAESVKGRFTISRDNAKNTVYLQMTSLRAEDTAVYYCAARRLKSTYWSDRSWDFWGQGTLVTVEP
17 | 0.661 | 0.654 | 1.14 | 44A11 (VHH) VHH: EVQLLESGGGEVQPGGSLRLSCVASGLTFSSYNMGWLRQAPGKEREFVGLSGSSSTSTYYAESVKGRFTISRDNAKNTVYLQMTSLRAEDTAVYYCAARRLLSTYWSDRSWDKWGQGTLVTVEP
18 | 0.484 | 0.479 | 0.966 | 10G10 (VHH, also called hzB10v40 VHH, CDR1 site 10 G to A) VHH: EVQLLESGGGEVQPGGSLRLSCVASGLTFSSYNMAWLRQAPGKEREFVGLSGSSSTSTYYAESVKGRFTISRDNAKNTVYLQMTSLRAEDTAVYYCAARRLLSTYWSDRSWDFWGQGTLVTVEP
